This is an account of results in the supplement of paper PMC10567573.

± gives the standard deviation.

The nature of the data set: protein stability index of a GFP-peptide fusion (GPS, HEK-293T) (PSI 1-6); higher = more stable.
Setting [1] is: treatment: DMSO, c terminus: a fixed tail appended.
The mark [2] stands for this setting: treatment: MLN4924 1 uM, 8 h, c terminus: a fixed tail appended.
Setting [3] is: treatment: DMSO, c terminus: native.
Setting [4] is: treatment: MLN4924 1 uM, 8 h, c terminus: native.
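Further: 24-mer peptide tiles fused after GFP, lentivirally expressed, FACS-sorted into six equal bins by GFP/DsRed ratio, decoded by Illumina sequencing, PSI is the read-weighted mean bin number.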

In the case of RPIPTPVGSVHVDSGASAITRESH [CSNK1G1], the protein stability index is, setting by setting: under setting [1], 4.86 ± 0.33; under setting [2], 4.9 ± 0.27.
In the case of RRDYLLLVMEGTDDGRLLEYDTVT [APMAP], the protein stability index runs as follows: under setting [1], 2.26 ± 0.32; under setting [2], 2.72 ± 0.13.
The sequence RRERELQHAALGGTATRQNNWPPL [SCAMP3] had a protein stability index under setting [1] of 3.54 ± 0.16 and a protein stability index under setting [2] of 3.82 ± 0.21.
RRKREVLVEDMVSQEEAQGLPSSE [ZNF24]: the protein stability index under setting [1] was determined as 5.31 ± 0.2 and the protein stability index under setting [2] worked out at 5.43 ± 0.15.
Regarding RRLFGPVDSEQLRRDCDALMAGCI [CDKN1A], the protein stability index reads like this: under setting [1], 2.75 ± 0.26; under setting [2], 2.74 ± 0.34.
Take RRVHLTEDQWGKGTLTPRMTTDFD [TRIM9]: the protein stability index amounted to 3.92 ± 0.13 under setting [1] and 4 ± 0.18 under setting [2].
As to RSRKVSCPLTRSNGDLSRSLSPSP [FCHO1], the protein stability index under setting [1] stood at 4.04 ± 0.45 and the protein stability index under setting [2] is 4.08 ± 0.15.
For the sequence RTANPSKTIDLGAAAHYTGDKASP [CLINT1], the protein stability index runs as follows: under setting [1], 4.99 ± 0.27; under setting [2], 4.93 ± 0.083.
Turning to RVDPTRVNEFGMSGEDPTAAAPVA [CLPTM1], the protein stability index is, setting by setting: under setting [1], 4.98 ± 0.099; under setting [2], 5.02 ± 0.2.
In the case of RVDVDTYLTSQLPPLREIILGPSS [NFE2L1], the protein stability index under setting [1] was found to be 2.67 ± 0.46 and the protein stability index under setting [2] worked out at 2.67 ± 0.35.
Take RYFGARAILGEQRPRQRQRVYPKC [TCF25]: the protein stability index was determined as 3.84 ± 0.32 under setting [1] and 3.58 ± 0.21 under setting [2].
In the case of RYQQSKAAALKCQLCEKAPKEATV [TRIM9], the protein stability index is, setting by setting: under setting [1], 3.85 ± 0.28; under setting [2], 4.01 ± 0.14.
In the case of RYTFAPSVSLNKTARPFGAPPPAD [PDLIM7], the protein stability index turned out to be 3.34 ± 0.2 under setting [1] and 3.55 ± 0.21 under setting [2].
Take SADMDESDEDDEEERRRRVFDVPI [FBXO3]: the protein stability index runs as follows: under setting [1], 5.32 ± 0.18; under setting [2], 5.35 ± 0.11.
On to SADPARGLPRSRDCRVDLGSEVYR [PDLIM4], for which the protein stability index is, setting by setting: under setting [1], 3.74 ± 0.23; under setting [2], 3.83 ± 0.09.
The corresponding values for SAFPFSDKLGELSDKIGSTIDDTI [CLINT1] are 3.67 ± 0.2 and 3.81 ± 0.39.
For SAKLAPHYFHSISYKIEEISPSTL [KCNK9], in that order: 2.41 ± 0.23 and 2.31 ± 0.34.
For SAPGACEEPTERGNLEVGEPQSEP [FBXO34], the protein stability index by setting is: under setting [1], 5.67 ± 0.27; under setting [2], 5.7 ± 0.17.
As for SCSQNLLITQQIIPVLYCMVFIAG [P2RY14], the protein stability index was 3.03 ± 0.58 under setting [1] and 2.87 ± 0.73 under setting [2].
Consider SDGFRDCKKGDPKHGKRKRGRPRK [ELF3], for which the protein stability index runs as follows: under setting [1], 5.18 ± 0.35; under setting [2], 5.22 ± 0.15.
SDQDPRVRTAAIKAMLQLHERGLK [INTS4] came in with a protein stability index under setting [1] of 3.67 ± 0.31 and a protein stability index under setting [2] of 3.79 ± 0.39.
SEDRTIRVWLKRDSGQYWPSIYHT [WDFY1]: the protein stability index by setting is: under setting [1], 2.15 ± 0.19; under setting [2], 2.25 ± 0.31.
The corresponding values for SEGKVLTLAALLLNRSESDIRYLL [FEM1B] are 2.43 ± 0.56 and 2.38 ± 0.24.
As for SEIKNYNFQQPGFTSGTGHFTAMV [GLIPR2], the protein stability index is, setting by setting: under setting [1], 2.41 ± 0.58; under setting [2], 2.77 ± 0.16.
The corresponding values for SERPLEDLRLRLDHLGWVARGTGS [RTN2] are 2.63 ± 0.53 and 3.2 ± 0.58.
In turn, SESEQEFLYKTAGGLIYWIGLTKA [CD207] returned a protein stability index under setting [2] of 2.11 ± 0.59.
On to SESGKLVTKMFQKIQDLIDDKDAL [TRIP13], for which the protein stability index is, setting by setting: under setting [1], 3.43 ± 0.17; under setting [2], 3.42 ± 0.2.
With SFEAPLTPLIQQRARDSPEPGAGL [PSD2], the protein stability index is, setting by setting: under setting [1], 4.66 ± 0.22; under setting [2], 4.68 ± 0.2.
SFEDDCSQSLCLNKPTMSFKDYIQ [ETS2]: the protein stability index by setting is: under setting [1], 3.52 ± 0.15; under setting [2], 3.67 ± 0.28.
For SFIKNSDSFDKFEFCEPAFVVGNC [PCMTD1], in that order: 2.37 ± 0.11 and 2.62 ± 0.22.
SFQMSEGSEAAVIPLDLGCTQVTQ [FAM189A2]: the protein stability index by setting is: under setting [1], 4.56 ± 0.17; under setting [2], 4.43 ± 0.31.
For SFSLVKLVLRRQLKNKCCPPPCKF [C22orf31], the protein stability index is 2.29 ± 0.47 under setting [1] and 2.35 ± 0.41 under setting [2].
For SFVTGSHVGELIIWDALDWTMQAY [WDR41], in that order: 2.9 ± 0.72 and 3.21 ± 1.5.
As for SGAGHGSGSGSGPGCGSVPGSGSG [SPAG8], the protein stability index reads like this: under setting [1], 5.03 ± 0.17; under setting [2], 4.96 ± 0.4.
Regarding SGGSSSSFRAGSKGLSGGFGSRSL [KRT71], the protein stability index is 3.32 ± 0.18 under setting [1] and 3.14 ± 0.13 under setting [2].
In the case of SGKRLSGVSSVDSAFSSRGSLSLS [RIPK4], the protein stability index under setting [1] came to 3.47 ± 0.62 and the protein stability index under setting [2] is 3.57 ± 0.41.
The corresponding values for SGLFNHRGIHNIQKRYHCKECGKV [ZSCAN9] are 3.08 ± 0.41 and 3.13 ± 0.35.
Take SGPRQLLTLYNPTGTALRFRVLCT [MOSPD3]: the protein stability index was 2.15 ± 0.48 under setting [1] and 2.16 ± 0.27 under setting [2].
The corresponding values for SGSGNGSSTLNPSTSSSTQGDPAF [NOL4L] are 5.04 ± 0.34 and 5.07 ± 0.17.
In turn, SHPACPLEFAYYFRPGHLLANACL [ZSWIM9] registered a protein stability index under setting [1] of 2.81 ± 0.54 and a protein stability index under setting [2] of 2.52 ± 0.56.
For SIEGTIPFSKPVKVYIMPKPARR [INTS4], the protein stability index under setting [3] was 2.42 ± 0.33 and the protein stability index under setting [4] came to 2.56 ± 0.45.
As for SIYDNVPGSILYSSSGDLADLENE [DLC1], the protein stability index runs as follows: under setting [1], 4.843 ± 0.034; under setting [2], 4.75 ± 0.12.
The sequence SKARTKSLLGDDVFSTMAGLEEAD [FBF1] came in with a protein stability index under setting [1] of 4.87 ± 0.29 and a protein stability index under setting [2] of 5.05 ± 0.2.
For SLENTLTESEARYSSQLSQVQSLI [KRT33B], the protein stability index by setting is: under setting [1], 3.05 ± 0.23; under setting [2], 3.11 ± 0.46.
SLGPALSTGPRGLCAMPQTGDAF [VENTX] showed a protein stability index under setting [3] of 2.44 ± 0.12 and a protein stability index under setting [4] of 2.3 ± 0.11.
Turning to SLHHTSECTQMDHLGCMHYTVRAP [ALDH8A1], the protein stability index was 3.04 ± 0.13 under setting [1] and 3.06 ± 0.25 under setting [2].
Consider SLLLTPQENESLFTFLGKKCVTMS [WASL], for which the protein stability index runs as follows: under setting [1], 2.45 ± 0.15; under setting [2], 2.5 ± 0.4.
SLLTNWPSVPPTIKEEENSEEELA [MYBL2]: the protein stability index by setting is: under setting [1], 5.41 ± 0.26; under setting [2], 5.28 ± 0.28.
Take SLRIALSEHLKQRREVAKTVFCLV [EDNRA]: the protein stability index reads like this: under setting [1], 1.93 ± 0.34; under setting [2], 2.26 ± 0.3.
As for SLSNGQGSRVLHVVQTLYPFSSVT [NCK2], the protein stability index runs as follows: under setting [1], 2.01 ± 0.18; under setting [2], 2.14 ± 0.21.
The corresponding values for SLTAAETLALQGTQGQEKMMMMGP [ZNF232] are 4.01 ± 0.18 and 4.14 ± 0.2.
SNKSLVEALGLEAEGAVPETQTLT [RHOBTB1]: the protein stability index by setting is: under setting [1], 5.09 ± 0.26; under setting [2], 5.16 ± 0.36.
The sequence SNLLSRFTRNEFNLESKSTIGVEF [RAB11A] yielded a protein stability index under setting [1] of 2.36 ± 0.31 and a protein stability index under setting [2] of 2.72 ± 0.49.
